Results taken from US20240317865A1 (MOMENTA PHARMACEUTICALS, published 2024).

Tests used:
[1] = target: α11β1 on CHO-K1 cells stably expressing human α11 (CHO-K1 hu α11) (human, UniProt Q9UKX5 23-1188); test: cell-based or functional assay
[2] = target: T1, recombinant human integrin alpha 11 beta 1 (α11β1) (human, UniProt Q9UKX5 23-1141; P05556 21-728); test: SPR (Biacore T200), HIS-tagged human α11β1 captured by anti-HIS antibody, single-cycle kinetics, 1:1 Langmuir fit
T1 construct: Coated in ELISA; also called human α11β1; soluble human α11β1
T1 sequence (Q9UKX5 23-1141 limits assumed, chain 1 of 2): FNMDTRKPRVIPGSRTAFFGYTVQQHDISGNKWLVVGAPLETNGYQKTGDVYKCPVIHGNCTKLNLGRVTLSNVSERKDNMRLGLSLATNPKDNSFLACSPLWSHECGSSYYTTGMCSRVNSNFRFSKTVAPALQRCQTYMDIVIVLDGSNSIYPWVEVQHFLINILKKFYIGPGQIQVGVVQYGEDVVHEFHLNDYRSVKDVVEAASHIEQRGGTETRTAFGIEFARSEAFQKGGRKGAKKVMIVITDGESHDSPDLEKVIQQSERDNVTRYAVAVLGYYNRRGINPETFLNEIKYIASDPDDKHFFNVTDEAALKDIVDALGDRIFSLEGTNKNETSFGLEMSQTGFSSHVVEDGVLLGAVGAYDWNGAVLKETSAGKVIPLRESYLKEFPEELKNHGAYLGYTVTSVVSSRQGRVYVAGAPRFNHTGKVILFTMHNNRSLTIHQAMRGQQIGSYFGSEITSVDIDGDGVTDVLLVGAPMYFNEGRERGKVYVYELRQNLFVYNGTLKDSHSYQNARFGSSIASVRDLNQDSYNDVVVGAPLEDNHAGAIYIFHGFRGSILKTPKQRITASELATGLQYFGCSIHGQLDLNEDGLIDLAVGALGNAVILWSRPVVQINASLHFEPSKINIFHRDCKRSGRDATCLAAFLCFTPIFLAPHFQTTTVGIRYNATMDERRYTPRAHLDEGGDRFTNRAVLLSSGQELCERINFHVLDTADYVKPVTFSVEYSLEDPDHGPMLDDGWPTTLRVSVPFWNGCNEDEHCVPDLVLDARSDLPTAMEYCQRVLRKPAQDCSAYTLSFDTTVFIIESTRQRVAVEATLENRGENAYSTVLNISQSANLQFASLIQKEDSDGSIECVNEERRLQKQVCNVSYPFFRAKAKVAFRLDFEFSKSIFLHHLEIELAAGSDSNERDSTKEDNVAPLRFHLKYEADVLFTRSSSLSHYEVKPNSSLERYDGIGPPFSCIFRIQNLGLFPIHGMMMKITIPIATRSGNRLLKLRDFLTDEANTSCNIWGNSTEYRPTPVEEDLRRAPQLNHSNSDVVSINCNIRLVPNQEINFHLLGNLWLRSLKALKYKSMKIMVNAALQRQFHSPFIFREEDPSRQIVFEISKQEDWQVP
T1 sequence (P05556 21-728 limits assumed, chain 2 of 2): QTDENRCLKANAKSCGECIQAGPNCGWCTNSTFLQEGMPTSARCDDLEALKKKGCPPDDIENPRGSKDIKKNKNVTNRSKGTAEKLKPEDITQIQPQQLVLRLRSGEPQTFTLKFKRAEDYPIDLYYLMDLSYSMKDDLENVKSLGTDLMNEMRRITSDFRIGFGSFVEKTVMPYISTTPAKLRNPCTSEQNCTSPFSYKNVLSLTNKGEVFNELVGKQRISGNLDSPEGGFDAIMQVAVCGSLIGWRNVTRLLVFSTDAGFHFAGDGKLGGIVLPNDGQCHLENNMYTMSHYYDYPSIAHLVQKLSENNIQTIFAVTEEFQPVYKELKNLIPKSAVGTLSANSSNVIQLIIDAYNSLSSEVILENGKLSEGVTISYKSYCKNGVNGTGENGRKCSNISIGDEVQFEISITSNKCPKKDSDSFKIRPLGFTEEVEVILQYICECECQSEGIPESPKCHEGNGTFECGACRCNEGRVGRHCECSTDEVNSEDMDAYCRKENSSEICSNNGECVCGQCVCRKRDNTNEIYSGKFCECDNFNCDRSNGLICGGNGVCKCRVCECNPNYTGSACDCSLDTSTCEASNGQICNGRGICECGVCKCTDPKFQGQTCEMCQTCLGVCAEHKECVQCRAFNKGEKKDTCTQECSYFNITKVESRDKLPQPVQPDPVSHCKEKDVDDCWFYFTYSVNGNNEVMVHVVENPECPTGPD
Protocol: The affinity of antibodies for human α11β1 was measured by surface plasmon resonance assay (SPR). Affinity was measured at pH 7.6 and 25° C. with a Biacore T200 instrument. Anti-HIS antibody was immobilized on the SPR sensor surface using EDC/NHS covalent attachment. HIS-tagged human α11β1 was captured on the sensor surface and a single-cycle kinetics assay was used. Increasing concentrations of test antibody were injected in series over the sensor-bound α11β1. Dissociation was monitored for 1000 seconds. A sensor surface with only anti-HIS antibody and a series of blank injections were used to double-reference subtract the data. A 1:1 Langmuir model was fit to the data to estimate the kinetic association and dissociation constants. The affinity (equilibrium dissociation constant) of the interaction was calculated by dividing the kinetic dissociation constant by the kinetic association constant. Between injection cycles α11β1 and bound antibody were removed with an injection of 10 mM glycine at pH 1.5.
The binding affinity of antibodies for the α11β1 Headpiece and α11β1 I Domain as measured by SPR is shown in FIG. 10A and FIG. 10B, respectively.

[3] = target: T2, α11β1 on human myofibroblasts (MF) (human, UniProt Q9UKX5 23-1188; P05556 21-798); test: FACS (PE) on human myofibroblasts, histogram
T2 construct: whole, on cells; Human pulmonary fibroblasts treated with TGFβ
T2 sequence (Q9UKX5 23-1188, chain 1 of 2): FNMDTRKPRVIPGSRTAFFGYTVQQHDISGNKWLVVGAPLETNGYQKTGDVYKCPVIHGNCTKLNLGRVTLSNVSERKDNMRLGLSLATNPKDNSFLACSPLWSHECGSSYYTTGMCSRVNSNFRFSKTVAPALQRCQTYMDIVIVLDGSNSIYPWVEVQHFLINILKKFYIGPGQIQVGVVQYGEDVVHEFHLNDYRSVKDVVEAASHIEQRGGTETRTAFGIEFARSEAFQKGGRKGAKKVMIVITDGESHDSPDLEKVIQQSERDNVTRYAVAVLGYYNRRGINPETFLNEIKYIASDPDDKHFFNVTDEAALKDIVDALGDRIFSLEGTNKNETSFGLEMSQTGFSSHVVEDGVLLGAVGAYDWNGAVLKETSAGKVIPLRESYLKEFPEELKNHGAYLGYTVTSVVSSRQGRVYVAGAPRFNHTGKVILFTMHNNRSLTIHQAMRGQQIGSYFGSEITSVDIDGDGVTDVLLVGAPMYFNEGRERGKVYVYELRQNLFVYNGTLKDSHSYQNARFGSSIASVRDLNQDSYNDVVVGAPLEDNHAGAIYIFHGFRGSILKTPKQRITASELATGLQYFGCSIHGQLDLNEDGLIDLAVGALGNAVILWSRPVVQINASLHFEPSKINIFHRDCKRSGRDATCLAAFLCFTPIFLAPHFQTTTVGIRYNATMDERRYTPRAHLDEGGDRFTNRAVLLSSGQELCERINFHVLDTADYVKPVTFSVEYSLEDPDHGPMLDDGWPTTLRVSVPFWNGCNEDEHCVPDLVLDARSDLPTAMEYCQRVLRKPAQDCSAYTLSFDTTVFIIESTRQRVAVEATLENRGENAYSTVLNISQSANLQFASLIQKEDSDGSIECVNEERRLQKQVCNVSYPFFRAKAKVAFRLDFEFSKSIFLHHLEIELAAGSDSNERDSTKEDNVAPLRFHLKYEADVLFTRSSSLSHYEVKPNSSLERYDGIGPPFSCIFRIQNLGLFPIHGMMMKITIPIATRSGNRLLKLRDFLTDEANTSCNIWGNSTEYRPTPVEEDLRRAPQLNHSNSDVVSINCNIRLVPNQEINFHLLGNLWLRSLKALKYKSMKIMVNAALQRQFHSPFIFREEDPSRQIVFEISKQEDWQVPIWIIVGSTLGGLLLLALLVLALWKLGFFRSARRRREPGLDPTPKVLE
T2 sequence (P05556 21-798, chain 2 of 2): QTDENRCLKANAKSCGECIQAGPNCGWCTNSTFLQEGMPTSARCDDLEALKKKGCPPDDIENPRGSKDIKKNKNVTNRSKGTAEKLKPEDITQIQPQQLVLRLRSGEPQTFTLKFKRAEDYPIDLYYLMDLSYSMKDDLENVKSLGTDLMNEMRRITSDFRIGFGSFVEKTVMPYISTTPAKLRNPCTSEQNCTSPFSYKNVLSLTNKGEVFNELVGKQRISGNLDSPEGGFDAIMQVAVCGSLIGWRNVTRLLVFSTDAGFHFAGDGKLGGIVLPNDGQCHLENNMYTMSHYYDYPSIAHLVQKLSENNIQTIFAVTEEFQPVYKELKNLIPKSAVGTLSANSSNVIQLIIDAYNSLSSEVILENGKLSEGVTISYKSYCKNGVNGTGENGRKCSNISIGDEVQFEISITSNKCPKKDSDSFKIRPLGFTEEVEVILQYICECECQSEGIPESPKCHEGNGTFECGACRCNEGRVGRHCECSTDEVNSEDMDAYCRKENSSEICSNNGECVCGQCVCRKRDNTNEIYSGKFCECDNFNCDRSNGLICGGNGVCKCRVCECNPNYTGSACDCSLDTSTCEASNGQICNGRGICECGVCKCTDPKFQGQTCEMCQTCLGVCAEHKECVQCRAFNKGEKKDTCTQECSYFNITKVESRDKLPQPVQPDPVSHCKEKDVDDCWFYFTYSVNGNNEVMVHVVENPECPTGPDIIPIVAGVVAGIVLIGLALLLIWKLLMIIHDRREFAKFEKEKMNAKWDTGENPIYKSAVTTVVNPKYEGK

[4] = target: T1, recombinant human integrin alpha 11 …; test: ELISA on plate-coated recombinant human α11β1, OD 450nm
Protocol: 0.25 μg/mL of target antigen (recombinant human or mouse α11β1) was plated in a 96-well plate over night at 4° C. Plates were washed (PBS with 0.1% Tween-20), blocked (PBS with 2% BSA and 0.05% Tween-20) for 1 hour at room temperature and incubated with a range of antibody concentrations for 1 hour at room temperature. Subsequently, plates were washed and incubated with biotinylated anti-rabbit/mouse/human IgG in a 1:1000 dilution buffer and incubated for 1 hour at room temperature. After washing the plates, Streptavidin HRP was added at 1:200 in dilution buffer and incubated for 1 hour at room temperature. Ultra TMB ELISA substrate solution was added and the plates incubated for 5 minutes on a plate shaker. The reaction was stopped by adding stop solution to each well and plates were read at 450 nm.

α11β1 on CHO-K1 cells stably expressing human α11 (CHO-K1 hu α11), sequence (Q9UKX5 23-1188): as the sequence (Q9UKX5 23-1188, chain 1 of 2) above

Row | Binder | IC50, inhibition of adhesion of CHO-α11 cells to type I collagen, dose curve [1] [nM] | koff [2] [s⁻¹] | kon [2] [M⁻¹ s⁻¹] | binding result [3] | binding result [4]
1 | A11B1_16E10 (antibody, V domains shown, rabbit monoclonal, recombinantly produced in HEK cells; full chains) VH: QSLEESGGDLVKPGASLTLTCRVSGFSFSSSYYMCWVRQAPGKGLEWIACIGTTRGSTYYATWAKGRFTISKISSTTVTLQMTSLTDADTATYFCARDATGYRINTIGLYFNLWGPGTLVTVSS VL: AFELTQTPSSVEAAVGGTPTIKCQASQTIYSYLSWYQQKPGQPPKLLIYEASKLASGVPSRFSGSGSGTDYTLTISDLECADAATYYCQSYHGTASTEYNTFGGGTEVVVRG | 0.39 | 0.000224 | 4.68e+06 | – | –
2 | 8-J17 (antibody, V domains shown, mouse hybridoma IgG) VH: QVQLQQSGAELAKPGASVKMSCKASGYTFTNYWMHWVKQRPGQGLEWIGYINPNNGYTEYNQRFKDKATLTADRSSTTAYMQLSSLTSEDSAVYYCARSDIITTDYWGQGTTLTVSS VL: DVVMTQTPLSLPVSLGDQASISCRSSQSLVYSNGNTYLHWYLQKPGQSPKLLIYKVSNRFSGVPDRFSGSGSGTDFTLKISRVEAEDLGVYFCSQSTHVPWTFGGGTKLEIK | – | – | – | binds | binds
